Target: T1, biotinylated CD59 (Homo sapiens, UniProt P13987)
T1 construct: Recombinant soluble human CD59 with an additional C-terminal cysteine residue
T1 sequence (P13987 26-102 limits assumed): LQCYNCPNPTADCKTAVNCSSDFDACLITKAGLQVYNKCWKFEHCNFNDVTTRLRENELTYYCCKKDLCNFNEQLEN
Assay: mRNA-display cyclic peptide screen against CD59-biotin, NGS abundance after 6th selection round
Conditions: for Percentage Seq I: counts normalised by total counts of sample Seq I; for Percentage Seq I / Percentage Seq II: percentage of the pool; for Percentage Seq I / Percentage Seq II / Percentage Average / Percentage of the pool, averaged across the two sequencing samples / Percentage of the pool, Seq I / Percentage of the pool, Seq II: sheet R6; for Percentage Seq II: counts normalised by total counts of sample Seq II; for Percentage Average: percentage of the pool averaged across the two sequencing samples; for Counts Seq I / Counts Seq II: raw NGS counts of peptide sequence; for Counts Seq I: sequencing sample Seq I; for Counts Seq I / Counts Seq II / Counts (raw counts for peptide sequence), Seq I / Counts (raw counts for peptide sequence), Seq II: sheet R6 (6th selection round); for Counts Seq II: sequencing sample Seq II; for Counts (raw counts for peptide sequence), Seq I: NGS sample Seq I; for Counts (raw counts for peptide sequence), Seq II: NGS sample Seq II; for Percentage of the pool, averaged across the two sequencing samples: average of Seq I and Seq II; for Percentage of the pool, Seq I: counts normalised by total counts of NGS sample Seq I; for Percentage of the pool, Seq II: counts normalised by total counts of NGS sample Seq II
In short: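 Peptide–mRNA fusions were made by in vitro translation with a customised PURE express kit. The kit lacked release factor 1 and methionine and was supplemented with […] initiator tRNA carrying N-chloroacetyl-d-tyrosine. Thioether macrocycles were formed, then enriched and amplified over iterative rounds on CD59-biotin immobilised on streptavidin beads. NGS read counts per sequence were recorded after the 6th selection round.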

Row | Sequence | Percentage Seq I | Percentage Seq II | Percentage Average | Counts Seq I | Counts Seq II | Counts (raw counts for peptide sequence), Seq I | Counts (raw counts for peptide sequence), Seq II | Percentage of the pool, averaged across the two sequencing samples | Percentage of the pool, Seq I | Percentage of the pool, Seq II
1 | IASGSLHFVFY | 0.027% | 0.032% | 0.030% | 119 | 14 |  |  |  |  | 
2 | IATGSKLYAKG | 0.033% | 0.046% | 0.040% | 145 | 20 |  |  |  |  | 
3 | IIRGNRLTKYE | 0.020% | 0.026% | 0.023% | 86 | 11 |  |  |  |  | 
4 | ILGSRDTIKYW | 0.118% | 0.167% | 0.142% | 515 | 72 |  |  |  |  | 
5 | IQSGSQSWSRG | 0.037% | 0.035% | 0.036% | 164 | 15 |  |  |  |  | 
6 | ISGGRNWRAG |  |  |  |  |  | 65 | 6 | 0.014% | 0.015% | 0.014%
7 | ISRGDARYTWG | 0.019% | 0.023% | 0.021% | 83 | 10 |  |  |  |  | 
8 | ISWGNGSLAFY | 0.147% | 0.116% | 0.132% | 643 | 50 |  |  |  |  | 
9 | ISYGDRSYTYY | 0.106% | 0.121% | 0.113% | 463 | 52 |  |  |  |  | 
10 | ITRGSNIYAYG |  |  |  |  |  | 79 | 6 | 0.016% | 0.018% | 0.014%
11 | KWGSSFFTLYRV |  |  |  |  |  | 49 | 4 | 0.010% | 0.011% | 0.009%
12 | LAWGNRQIQYY |  |  |  |  |  | 78 | 6 | 0.016% | 0.018% | 0.014%
13 | LCAENPLRPR | 0.075% | 0.077% | 0.076% | 329 | 33 |  |  |  |  | 
14 | LCSVRGSNDWI | 0.073% | 0.074% | 0.074% | 320 | 32 |  |  |  |  | 
15 | LCYVKGSKDFT | 0.027% | 0.019% | 0.023% | 120 | 8 |  |  |  |  | 
16 | LCYVKGSKNFT | 0.088% | 0.095% | 0.092% | 385 | 41 |  |  |  |  | 
17 | LGGRGCFRPCSAAAAAAARTGGG | 0.050% | 0.042% | 0.046% | 220 | 18 |  |  |  |  | 
18 | LKPNGRCLPKV | 0.272% | 0.283% | 0.277% | 1189 | 122 |  |  |  |  | 
19 | LLGARDYVRLWH |  |  |  |  |  | 41 | 7 | 0.013% | 0.009% | 0.016%
20 | LLGSSSYVKFWY | 0.253% | 0.265% | 0.259% | 1105 | 114 |  |  |  |  | 
21 | LLGTRDYVRLWH | 0.144% | 0.139% | 0.142% | 630 | 60 |  |  |  |  | 
22 | LNPQGHCLLKL |  |  |  |  |  | 55 | 8 | 0.016% | 0.013% | 0.019%
23 | LQPPDRSCLPKI | 0.029% | 0.030% | 0.029% | 125 | 13 |  |  |  |  | 

Row | Sequence | Percentage Seq I | Percentage Seq II | Percentage Average | Counts Seq I | Counts Seq II | Counts (raw counts for peptide sequence), Seq I | Counts (raw counts for peptide sequence), Seq II | Percentage of the pool, averaged across the two sequencing samples | Percentage of the pool, Seq I | Percentage of the pool, Seq II
24 | LRGSYDYQLYFG | 0.013% | 0.023% | 0.018% | 57 | 10 |  |  |  |  | 
25 | LVRGDLYSVLG |  |  |  |  |  | 85 | 7 | 0.018% | 0.019% | 0.016%
26 | LVTGNRDHTRG | 0.023% | 0.030% | 0.027% | 100 | 13 |  |  |  |  | 
27 | LWGAANYLKVIY | 0.046% | 0.023% | 0.035% | 201 | 10 |  |  |  |  | 
28 | LWGTHSYIYYRP | 0.482% | 0.490% | 0.486% | 2109 | 211 |  |  |  |  | 
29 | LWGTHSYTYYRP |  |  |  |  |  | 60 | 4 | 0.011% | 0.014% | 0.009%
30 | LWGTHSYVYYRP |  |  |  |  |  | 46 | 7 | 0.013% | 0.011% | 0.016%
31 | LWGTRSFTLVRS |  |  |  |  |  | 64 | 5 | 0.013% | 0.015% | 0.012%
32 | LWWSDFYLCVVVRQRQRQLGRGAE |  |  |  |  |  | 65 | 7 | 0.016% | 0.015% | 0.016%
33 | LYGNRDYSFYRP | 0.162% | 0.169% | 0.166% | 707 | 73 |  |  |  |  | 
34 | LYSHPRSLCSFS | 0.082% | 0.091% | 0.086% | 357 | 39 |  |  |  |  | 
35 | NSCPDWVRGSRT | 0.229% | 0.262% | 0.246% | 1002 | 113 |  |  |  |  | 
36 | NTAWGNVAVAYF | 0.042% | 0.030% | 0.036% | 183 | 13 |  |  |  |  | 
37 | NYVERLCTSG |  |  |  |  |  | 68 | 5 | 0.014% | 0.016% | 0.012%
38 | PAWGNRQIQYY |  |  |  |  |  | 58 | 3 | 0.010% | 0.013% | 0.007%
39 | PFAKRVAAQGGC |  |  |  |  |  | 24 | 6 | 0.010% | 0.00549% | 0.014%
40 | PWTWGNRSSVRG |  |  |  |  |  | 49 | 10 | 0.017% | 0.011% | 0.023%
41 | QFAHRISSCAS | 0.032% | 0.030% | 0.031% | 139 | 13 |  |  |  |  | 
42 | QPFWGCRTVAYS | 0.033% | 0.049% | 0.041% | 144 | 21 |  |  |  |  | 
43 | QWNRWYGIDEL | 0.075% | 0.070% | 0.072% | 329 | 30 |  |  |  |  | 
44 | QWNRWYGIDER | 0.021% | 0.023% | 0.022% | 94 | 10 |  |  |  |  | 
45 | QWNRWYGMDEL | 0.284% | 0.260% | 0.272% | 1243 | 112 |  |  |  |  | 
46 | QWNRWYGMDER | 0.084% | 0.097% | 0.091% | 369 | 42 |  |  |  |  | 

From publication PMC12207370, “Macrocyclic Peptide Probes for Immunomodulatory Protein CD59: Potent Modulators of Bacterial Toxin Activity and Antibody‐Dependent Cytotoxicity” (Angewandte Chemie (International Ed. in English), 2025)
